Paper PMC6515686, “Characterization of two flavonol synthases with iron-independent flavanone 3-hydroxylase activity from Ornithogalum caudatum Jacq” (BMC Plant Biology, 2019)

Columns and labels:
Assay in all cases: HPLC, Lineweaver-Burk
Format in all cases: biochemical, Albuca bracteata
HPLC, Lineweaver-Burk [1] = substrate: O=C1C[C@@H](c2ccc(O)cc2)Oc2cc(O)cc(O)c21; conditions: F3H activity, apparent Km, 2-oxoglutarate, Fe2+, ascorbate, pH 6.0, 20 °C
Text: (§1) HPLC, Lineweaver-Burk on OcFLS1

HPLC, Lineweaver-Burk [2] = substrate: O=C1c2c(O)cc(O)cc2O[C@H](c2ccc(O)cc2)[C@H]1O; conditions: FLS activity, apparent Km, 2-oxoglutarate, Fe2+, ascorbate, pH 6.0, 20 °C
Text: as §1

HPLC, Lineweaver-Burk [3] = substrate: O=C1C[C@@H](c2ccc(O)cc2)Oc2cc(O)cc(O)c21; conditions: F3H activity, apparent Km, 2-oxoglutarate, Fe2+, ascorbate, pH 6.0, 20 °C; remark: listed apart in the source
Text: (§2) HPLC, Lineweaver-Burk on OcFLS2

HPLC, Lineweaver-Burk [4] = substrate: O=C1c2c(O)cc(O)cc2O[C@H](c2ccc(O)cc2)[C@H]1O; conditions: FLS activity, apparent Km, 2-oxoglutarate, Fe2+, ascorbate, pH 6.0, 20 °C; remark: listed apart in the source
Text: as §2

| Protein | Km (HPLC, Lineweaver-Burk [1]) [µM] | Vmax (HPLC, Lineweaver-Burk [1]) [µM/min] | Km (HPLC, Lineweaver-Burk [2]) [µM] | Vmax (HPLC, Lineweaver-Burk [2]) [µM/min] | Km (HPLC, Lineweaver-Burk [3]) [µM] | Vmax (HPLC, Lineweaver-Burk [3]) [µM/min] | Km (HPLC, Lineweaver-Burk [4]) [µM] | Vmax (HPLC, Lineweaver-Burk [4]) [µM/min] |
| --- | --- | --- | --- | --- | --- | --- | --- | --- |
| OcFLS1 (Albuca bracteata) (protein) MEVERVQAIASMTASLGTIPAEFIRSEHERPDITTYHGPVPDIPVVDLSATDRAGVTKAIAEAAQEWGIFQVVNHRVPIEAIKELQRVGKEFFELPQEEKEAYATVPDSGSFEGYGTRLQKDLEGKKAWVDYLFHNVWPQSKITYRFWPNNPPEYRKANEEYAKYLQGVVDEMLTSLSLGLGLESHVLKEAVGGDELEYLLKINYYPPCPRPDLALGVVAHTDMSAITILVPNEVPGLQVFKDDHWFDAKYIPNALIVHIGDQIEILSNGKYKSVLHRTTVNKEKARMSWPVFCSPPGEMIVGPLPQLVSDENSAKFKTKKYKDYSYCKINKLPQ | 37.57 ± 6.316 | 2.05 | 471.3 ± 179 | 12.9 |  |  |  |  |
| OcFLS2 (Albuca bracteata) (protein) MEVERVQAIASMTASLGTIPAEFIRSEHERPDITTYHGPVPDIPVIDLSDTDRAAVAKAIADAAQEWGIFQVVNHGIPVEAIKELQRVGKGFFELPQEEKEAYATVPDSGSFEGYGTKLQKDLGGKKAWVDYLFHNVWPESKINYRFWPNNPPEYRKANEEYAKYLQEVVDEMLSSLSVGLGLEGHVLKEAVGGDELEYLLKINYYPPCPRPDLALGVVAHTDMSAITILVPNEVPGLQVFKDDHWFDAKYIPNALIVHIGDQIEILSNGKYKSVLHRTTVNKEKARMSWPVFCSPPGEMIVGPLPQLVSDENPAKFKTKKYKEYSYCKINKLPQ |  |  |  |  | 110.5 ± 20.86 | 5.82 | 525.7 ± 198.4 | 15.1 |
